For the test, the target named is PD-1-mFc (人PD-1胞外区加Fc纯化标签) (human) (UniProt Q15116). Briefly: ELISA of the subclone's supernatant on plate-coated PD-1 antigen. (An ELISA detects its analyte on a solid surface through an enzyme-linked reagent.)
Chain of UniProt Q15116 (Q15116 25-170): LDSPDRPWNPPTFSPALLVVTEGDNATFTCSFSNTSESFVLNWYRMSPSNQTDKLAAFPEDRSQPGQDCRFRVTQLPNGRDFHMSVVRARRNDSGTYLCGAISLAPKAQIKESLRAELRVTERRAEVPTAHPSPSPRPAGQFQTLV

B1: 抗PD-1鼠源单克隆抗体 (阳性克隆2G8-1N8) (antibody, V domains shown)
VH: EVKLVESGGGLVKPGGSLKLSCAASGFTFSSYGMSWVRQTPEKRLEWVATISGGGSYTYYPDSVKGRFTISRDNAKNNLYLQMSSLRSEDTALYYCASRFGEAWFAYWGQGTLVTVSA
VL: DIKMTQSPSSMYASLGERVTITCKASQDINSYLSWFQQKPGKSPKTLIYRANRLVDGVPSRFSGSGSGQDYSLTISSLEYEDMGIYYCLQYDEFPLTFGAGTKLELK
As for B1, the OD值 came to 1.02 OD.

These data come from patent CN110563849A.
